Assay results taken from PMC5836512.

How the values were obtained:
Cul1-Rbx1 (Homo sapiens) = Cul1-Rbx1 (Homo sapiens) (UniProt Q13616); conditions: cited from earlier work
^3xFLAGpIκBα = ^3xFLAGpIκBα (UniProt P25963); test: co-IP
^3xFLAGpIκBα, sequence (P25963 whole entry): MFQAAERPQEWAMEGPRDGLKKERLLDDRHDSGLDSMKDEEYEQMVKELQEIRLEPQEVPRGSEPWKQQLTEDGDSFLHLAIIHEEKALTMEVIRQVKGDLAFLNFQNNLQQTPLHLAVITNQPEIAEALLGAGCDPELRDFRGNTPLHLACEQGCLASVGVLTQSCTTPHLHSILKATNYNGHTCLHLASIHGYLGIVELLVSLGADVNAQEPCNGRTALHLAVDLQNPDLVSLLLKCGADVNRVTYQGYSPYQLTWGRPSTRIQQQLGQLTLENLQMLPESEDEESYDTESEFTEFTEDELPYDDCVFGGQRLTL

Dcn1, sequence (Q96GG9 whole entry): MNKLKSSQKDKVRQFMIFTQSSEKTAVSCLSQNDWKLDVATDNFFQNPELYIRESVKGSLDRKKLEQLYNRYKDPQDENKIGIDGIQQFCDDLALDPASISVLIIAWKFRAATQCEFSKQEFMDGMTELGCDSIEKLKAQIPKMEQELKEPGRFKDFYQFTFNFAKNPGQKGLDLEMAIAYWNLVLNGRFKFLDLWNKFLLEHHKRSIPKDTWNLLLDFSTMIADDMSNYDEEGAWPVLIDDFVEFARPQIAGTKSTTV

koff (^3xFLAGpIκBα) [s⁻¹]	Substance	Kd (Cul1-Rbx1 (Homo sapiens)) [nM]
–	Dcn1 (from UniProt Q96GG9)	1800
3.3e-05	β-TrCP (from UniProt Q9Y297 1-605) (natural protein)	–
